In assay [1] the test system is SST expression. Description: qPCR of SST expression in hiPSC-GABA neurons exposed to BMP4. In kind it is cell-based, human. The conditions noted are these: BMP4 exposure during either or both of weeks 3 and 4. The protocol: (§1) After quantification, 1 μg of RNA was retrotranscribed with Superscript III First-Strand Synthesis SuperMix for qRT-PCR (Thermo Fisher Scientific Life Sciences). A total of 2 μl of cDNA was used for qPCR using the SYBR Select Master Mix. Real-Time PCR was run on a LightCycler 480 Instrument II (Roche Life Science). The cycling program for all genes is the following: • 1. 95° C. 10′ Initial denaturation step • 2. 95° C. 30″ • 3. 58° C. 30″ • 4. 72° C. 30″ go to 2 for 35 cycles • 5. Melting curve analysis.
(§2) iGABAergic neurons were prepared according to an adaptation of the method described in Example 5. During the GABAergic differentiation protocol, hiPSCs were exposed to BMP4, during week 3 only (i.e. about DIV14 to about DIV21), week 4 only (i.e. about DIV21 to about DIV28) or during week 3 and week 4 (i.e. about DIV14 to about DIV28). Following differentiation (i.e. DIV28) the iGABAergic neurons were assessed for expression of somatostatin (SST) and Parvalbumin (PVALB). BMP4 treated cells were then be tested for their ability to reverse neuropathic pain and compared to non-treated iGABAergic neurons using the SNI model as hereinbefore described.
(In qPCR the cycle at which signal appears reflects the starting amount.)

For assay [2], the system named is PAVB expression. Description: qPCR of PAVB expression in hiPSC-GABA neurons exposed to BMP4. It is filed as cell-based, human. The conditions noted are these: BMP4 exposure during week 3 (about DIV14 to DIV21); not with week 4 or weeks 3 and 4. The protocol:
as §1, §2

The values that follow come from US20210244768A1, “CELL COMPOSITIONS AND USES THEREOF” (THE UNIVERSITY OF SYDNEY, priority 2018, published 2021).

B1: BMP4: agent which induces BMP signalling, added during GABAergic differentiation of hiPSCs (protein, UniProt P12644 293-408, looked up)
Bone morphogenetic protein 4: SPKHHSQRARKKNKNCRRHSLYVDFSDVGWNDWIVAPPGYQAFYCHGDCPFPLADHLNSTNHAIVQTLVNSVNSSIPKACCVPTELSAISMLYLDEYDKVVLKNYQEMVVEGCGCR
For the molecule B1, in assay [1], the “reduction of SST expression” value is on record as 50%. In assay [2], the “increase of PAVB expression” value stood at 6 fold.
